In the experiment the target is human ACE2 protein (Angiotensin-Converting Enzyme 2) (human, UniProt Q9BYF1 18-740). As to the kind of experiment: phage-displayed construct probed with ACE2.
Chain of human ACE2 protein (Angiotensin-Converting Enzyme 2) (Q9BYF1 18-740 limits assumed): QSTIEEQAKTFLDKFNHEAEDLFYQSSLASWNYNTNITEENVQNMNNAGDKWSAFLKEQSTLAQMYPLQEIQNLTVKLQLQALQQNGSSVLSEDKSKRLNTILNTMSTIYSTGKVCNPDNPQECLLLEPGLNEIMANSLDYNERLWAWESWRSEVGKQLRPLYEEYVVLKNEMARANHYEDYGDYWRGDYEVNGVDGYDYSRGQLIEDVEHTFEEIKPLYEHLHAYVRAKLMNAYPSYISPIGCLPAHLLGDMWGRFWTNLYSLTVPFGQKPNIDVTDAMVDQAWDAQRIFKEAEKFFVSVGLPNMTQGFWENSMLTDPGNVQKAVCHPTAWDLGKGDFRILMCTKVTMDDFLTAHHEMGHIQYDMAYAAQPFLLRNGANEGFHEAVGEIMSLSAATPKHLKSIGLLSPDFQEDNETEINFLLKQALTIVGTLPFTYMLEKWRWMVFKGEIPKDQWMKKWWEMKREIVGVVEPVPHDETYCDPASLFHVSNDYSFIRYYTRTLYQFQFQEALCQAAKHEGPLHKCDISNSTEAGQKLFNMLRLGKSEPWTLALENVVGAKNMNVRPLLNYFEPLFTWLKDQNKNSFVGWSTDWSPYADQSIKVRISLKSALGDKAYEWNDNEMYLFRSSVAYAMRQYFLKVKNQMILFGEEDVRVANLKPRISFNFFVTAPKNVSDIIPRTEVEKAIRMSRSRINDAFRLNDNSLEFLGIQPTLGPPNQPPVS

B1: initial SARS CoV RBM construct (residues S432-T486) displayed on fth-1 phage (other)
chain: STGNYNYKYRYLRHGKLRPFERDISNVPFSPDGKPCTPPALNCYWPLNDYGFYTT
As for B1, the binding result is listed as “no binding”.
